From publication PMC6048237
Where “and” joins values, the source holds several entries; their conditions need not be identical. Identical values can stand only once.

Biological target: Trypanosoma evansi mevalonate kinase (TeMVK), N-terminal 6xHis-tagged recombinant (Trypanosoma evansi)
Experiment: SEC; Superdex 200 16/600, 30 mM glycine pH 9.0, 150 mM NaCl; TeMVK expressed in autoinduction medium ZYM5052; sizes estimated from calibration with gel filtration standard

stoichiometry N: 2 and 4
Substance: Trypanosoma evansi mevalonate kinase (TeMVK), N-terminal 6xHis-tagged recombinant (enzyme)
